# Data from paper PMC7299281.
# Biological target: prefusion S protein of SARS-CoV (SARS-CoV)
row,Substance,IC50 of neutralisation of SARS-CoV pseudovirus [µg/mL]
1,COVA1-16 (antibody),2.5
2,COVA2-02 (antibody),0.61
